From patent US20140112931A1 (UNIVERSITE DE MONTPELLIER 1, published 2014)
One block for each binder: values may come before it.

Experiments:
[1] = target: T1, human HER3-Fc protein (R&D system) (human, UniProt P21860 20-643); assay: ELISA, HER3-Fc coated at 250 ng/ml
T1 construct: Bought (R&D system); called soluble HER3-Fc; also called soluble HER3-Fc; HER3-Fc antigen; not shown: Fc part

[2] = target: T2, EGFR on EGFR-transfected NIH 3T3 cells (UniProt P00533 25-1210, limits assumed); assay: flow cytometry on EGFR-transfected NIH 3T3 cells
T2 construct: whole, on cells; also called ErbB1; HER1

[3] = target: T3, HER2 on HER2- or HER2/HER3-transfected NIH 3T3 cells (UniProt P04626 23-1255, limits assumed); assay: flow cytometry on HER2-transfected NIH 3T3 cells
T3 construct: whole, on cells

[4] = target: T4, HER3 receptor on cells (HER3- and HER2/HER3-transfected NIH 3T3 cells, SKBR3 cells, BxPC3 cells) (human, UniProt P21860 20-1342); assay: flow cytometry on HER3-transfected NIH 3T3 cells
T4 construct: whole, on cells

[5] = target: T4, HER3 receptor on cells (HER3- and …); assay: flow cytometry on HER2/HER3-transfected NIH 3T3 cells
[6] = target: T4, HER3 receptor on cells (HER3- and …); assay: FACS competition on SKBR3 cells: heregulin against HER3-specific positive control antibody B
Experimental: (§1) After one washing with PBS-1% BSA, anti-HER3 mAbs, at concentration giving 50% maximal binding, were added to each well for 1 h on ice.

[7] = target: T4, HER3 receptor on cells (HER3- and …); assay: flow cytometry competition on SKBR3 cells; HRG varied; competitor: antibody 12H8-B11 at the concentration giving 50% maximal binding; antibody 12H8-B11 as the displaced probe, SKBR3 cells
Experimental: as §1

B1: anti-HER3 antibody U1-59 (Amgen/U3 Pharma-Daiichi Sankyo) (antibody, V domains shown)
VH: QVQLQQWGAGLLKPSETLSLTCAVYGGSFSGYYWSWIRQPPGKGLEWIGEINHSGSTNYNPSLKSRVTISVETSKNQFSLKLSSVTAADTAVYYCARDKWTWYFDLWGRGTLVTVSS
VL: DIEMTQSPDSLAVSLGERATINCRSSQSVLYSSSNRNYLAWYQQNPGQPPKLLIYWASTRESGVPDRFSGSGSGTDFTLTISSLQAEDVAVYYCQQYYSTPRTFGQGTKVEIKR
EC50 [1]: ~0.2 µg/mL | geometric mean (flow cytometry) [2]: 0.2 | geometric mean (flow cytometry) [3]: 0.4 | geometric mean (flow cytometry) [4]: 9.3 | geometric mean (flow cytometry) [5]: 15.5

B2: anti-HER3 antibody Ab6 (Merrimack Pharmaceuticals) (antibody, V domains shown)
VH: EVQLLESGGGLVQPGGSLRLSCAASGFTFSHYVMAWVRQAPGKGLEWVSSISSSGGWTLYADSVKGRFTISRDNSKNTLYLQMNSLRAEDTAVYYCTRGLKMATIFDYWGQGTLVTVSS
VL: QSALTQPASVSGSPGQSITISCTGTSSDVGSYNVVSWYQQHPGKAPKLIIYEVSQRPSGVSNRFSGSKSGNTASLTISGLQTEDEADYYCCSYAGSSIFVIFGGGTKVTVL
geometric mean (flow cytometry) [2]: 0.2 | geometric mean (flow cytometry) [3]: 0.3 | geometric mean (flow cytometry) [4]: 7.8 | geometric mean (flow cytometry) [5]: 14.1

Further lines, results first:

geometric mean (flow cytometry) [2]: 0.4 | geometric mean (flow cytometry) [3]: 0.4 | geometric mean (flow cytometry) [4]: 1.8 | geometric mean (flow cytometry) [5]: 12.4
B3: murine anti-HER3 monoclonal antibody 9F7-F11 (antibody, V domains shown)
VH: EVKLVESGGGLVQPGGSLKLSCAASGFTFSSYTMSWVRQTPEKRLEWVAYISDGGGVTYYPDTIKGRFTISRDNAKNTLYLQMSSLKSEDTAMYYCARDRYGLFAYWGQGTLVTVSA
VL: DIVMTQSQKFMSTSVGDRVSITCKASQNVGIAVAWYQQKPGQSPKLLIYSASNRYTGVPDRFTGSGSGTDFTLTISNMQSEDLADYFCQQYSNYPYTFGGGTKLEIK

IC50 (read off the curve) [6]: ~2 nM | IC50 [7]: ~2.5 nM
B4: heregulin (HRG) (ligand, UniProt Q02297-6 177-237, looked up)
chain: SHLVKCAEKEKTFCVNGGECFMVKDLSNPSRYLCKCPNEFTGDRCQNYVMASFYKHLGIEF
notes: also called HRG ligand
